Laboratory results reported in US20230235027A1 (US Dept. of Health and Human Services, published 2023).
“And” between values parts separate entries of the source, which are not always exact repeats. Equal values may be shown once. Read-outs that look alike come from different tables or passages of the source.

Key:
[1] = target: T1, Biotinylated SARS-CoV-2 S protein RBD with a C-terminal AviTag (SARS-CoV-2, UniProt P0DTC2 319-541)
[2] = target: T2, SARS-CoV-2 spike protein receptor binding domain (RBD), recombinant (SARS-CoV-2, UniProt P0DTC2 319-541)
[3] = target: T1, Biotinylated SARS-CoV-2 S protein RBD …; remark: listed apart in the source
[4] = target: T2, SARS-CoV-2 spike protein receptor …; remark: listed apart in the source
[5] = target: T2, SARS-CoV-2 spike protein receptor …; assay: competition ELISA, RBD coated, competitor biotinylated ACE2
[6] = target: T2, SARS-CoV-2 spike protein receptor …; assay: direct binding to RBD wild type (FIG. 7B); format not described further
[7] = target: T2, SARS-CoV-2 spike protein receptor …; assay: kinetic measurement, method not stated; table row prototype RBD
[8] = target: T3, SARS-CoV-1 spike protein RBD (SARS-CoV-1, UniProt P59594 306-527); assay: ELISA: coated SARS-CoV-1 RBD, NIH-CoVnb-112 titrated, absorbance 450 nm
T3 construct: domain: RBD

[9] = target: T2, SARS-CoV-2 spike protein receptor …; assay: ELISA: coated SARS-CoV-2 RBD, NIH-CoVnb-112 titrated, absorbance 450 nm
[10] = target: T1, Biotinylated SARS-CoV-2 S protein RBD …; assay: biolayer interferometry (FIG. 7C)

B1: NIH-CoVnb-108 (VHH, not shown: large carriers)
VHH: DVQLQESGGGLVQPGGSLRLSCAASGFTLDYYAIGWFRQAPGKEREGVSCISNSGGSTYYADSVKGRFTTSRDNAKNTVYLQMNSLKPEDTAVYYCAAVPSTYYSGSYYYTCHPGGMDYWGKGTQVTVSS
Kd [1]: 26.6 nM | koff [1]: 0.00109 s⁻¹ | kon [1]: 40900 M⁻¹ s⁻¹

B2: NIH-CoVnb-109 (VHH, not shown: large carriers)
VHH: DVQLQESGGGLVQSGGSLRLSCAASGFTLDYYAIGWFRQAPGKEREGVSCITNSDGSTYYADSVKGRFTTSRDNAKNTVYLQMNSLKPEDTAVYYCASFPSTYYSGSYYYTCHPGGMDYWGKGTQVTVSS
Kd [1]: 58.5 nM | koff [1]: 0.00188 s⁻¹ | kon [1]: 32100 M⁻¹ s⁻¹

B3: NIH-CoVnb-112 (VHH)
VHH: DVQLQESGGGLVQPGGSLRLSCAASGLTLDYYAIGWFRQAPGKEREGVSCISSSDGSTYYADSVKGRFTTSRDNAKNTVYLQMNSLKPEDTAVYYCAAVPSTYYSGTYYYTCHPGGMDYWGKGTQVTVSS
Kd [2]: 2.1 nM | Kd [3]: 4.9 nM | koff [3]: 0.000654 s⁻¹ | kon [3]: 130000 M⁻¹ s⁻¹ | koff [4]: 0.000295 s⁻¹ | kon [4]: 141000 M⁻¹ s⁻¹ | EC50 [5]: 0.02 µg/mL and 1.11 nM | EC50 [6]: ~0.01 µg/mL | koff [7]: 0.000236 s⁻¹ | kon [7]: 223000 M⁻¹ s⁻¹ | binding result [8]: no binding (tested: about 5 µg/mL) | EC50 (read off the curve) [9]: ~0.01 µg/mL

B4: NIH-CoVnb-113 (VHH)
VHH: DVQLQESGGGLVQPGGSLRLSCAASGLTLDYYAIGWFRQAPGKEREGVSCISSSDGSTYYADSVKGRFTTSRDNAKNTVYLQMNSLKPEDTAVYYCAAVPSTYYSGTYYYTCHPGGMDYWGKGTLVTVSS
Kd [1]: 8.19 nM | koff [1]: 0.000804 s⁻¹ | kon [1]: 98200 M⁻¹ s⁻¹

B5: NIH-CoVnb-103 (VHH, not shown: large carriers)
VHH: DVQLQESGGGLVQPGGSLRLSCAASGLTLDYYTIGWFRQAPGKEREGVSCISSSDDSTYYADSVKGRFTISRDNAKNTVYLQMNSLKPEDTAVYYCATAPGTYYKGSYYPMCHYYGMDYWGKGTQVTVSS
Kd [1]: 9.43 nM | koff [1]: 0.00286 s⁻¹ | kon [1]: 303000 M⁻¹ s⁻¹

B6: VHH72 (VHH)
VHH: QVQLQESGGGLVQAGGSLRLSCAASGRTFSEYAMGWFRQAPGKEREFVATISWSGGSTYYTDSVKGRFTISRDNAKNTVYLQMNSLKPDDTAVYYCAAAGLGTVVSEWDYDYDYWGQGTQVTVSS
binding result [10]: binds
